Read-outs that look alike come from different tables or passages of the source.

For series [1], the target named is T1, FtsZ (E. coli (by the printed UniProt entry; not said in words for the construct)). Description: FRAP.
Series [2] addresses T1, FtsZ (E. coli). Description: single molecule tracking.
The target of series [3] is T1, FtsZ (E. coli). Description: single molecule tracking. The source holds these as a separate data set.
The series “SEC” concerns the molecule itself. Description: SEC. (SEC sorts molecules by how far they enter the pores of the column.)

Turning to FtsZ (natural protein), in the series with FtsZ (E. coli) [1], the FRAP recovery half-time (at 6.0 μM ZapA) was determined as 6.66 s and the FRAP recovery half-time (in the absence of ZapA) came out at 7.63 s. In the series with FtsZ (E. coli) [2], the lifetime of single FtsZ monomers in the filaments (with ZapA) came out at 6.01 s and the lifetime of single FtsZ monomers in the filaments (without ZapA) came out at 6.59 s.
ZapA-Cy5 (natural protein) showed an FRAP recovery half-time with FtsZ (E. coli) [1] of 3.01 s. The values for the lifetime of single molecules on FtsZ filaments in the series with FtsZ (E. coli) [2] and with FtsZ (E. coli) [3] were 0.94 s and 0.95, respectively.

B1: ZapA (natural protein, UniProt P0ADS2 1-109, looked up)
chain: MSAQPVDIQIFGRSLRVNCPPDQRDALNQAADDLNQRLQDLKERTRVTNTEQLVFIAALNISYELAQEKAKTRDYAASMEQRIRMLQQTIEQALLEQGRITEKTNQNFE
On to B1, for which the binding result in “SEC” is recorded as “binds”.

The record behind these values is paper doi:10.1101/580944 (bioRxiv, 2019).
